This is an account of results in patent US11278600B2, “Human alpha-galactosidase variants” (Codexis, Inc., priority 2014, dated 2022).

Changes are numbered by the printed parent chain.

To fix the notation:
B1: 283 (protein)
chain: LDNGLARTPTMGWLHWERFMCNLDCQEEPDSCISEKLFMEMAERMVSEGWKDAGYEYLCIDDCWMAPQRDSEGRLQADPQRFPHGIRQLANYVHSKGLKLGIYADVGNKTCAGFPGSFGYYDIDAQTFADWGVDLLKFDGCYCDSLENLADGYKHMSLALNRTGRSIVYSCEWPLYMWPFQKPNYTEIRQYCNHWRNFADIDDSWASIKSILDWTSFNQERIVDVAGPGGWNDPDMLVIGNFGLSWDQQVTQMALWAIMAAPLFMSNDLRHISPQAKALLQDKDVIAINQDPLGKQGYQLRKGDNFEVWERPLSGLAWAVAMINRQEIGGPRSYTIPVASLGKGVACNPGCFITQLLPVKRKLGFYDWDSRLRSHINPTGTVLLQLENTMQMSLKDLL
modifications: Synthetic Polypeptide sequence of Variant No. 283 of mature Human GLA
B2: 284 (protein)
chain: B1 chain with R221T, K302Q, M322I, P337A, K343D, G350A, F365L, D367E, D369T, I376V
modifications: Synthetic Polypeptide sequence of Variant No. 284 of mature Human GLA
B3: 286 (protein)
chain: B1 chain with K96I, F217R, K302Q, P337A, G350A, D367E, D369T
modifications: Synthetic Polypeptide sequence of Variant No. 286 of mature Human GLA
B4: 292 (protein)
chain: B1 chain with L100F, I208V, Q219H, M322V, P337A, G350A, D367E, D369T, R373K, I376V
modifications: Synthetic Polypeptide sequence of Variant No. 292 of mature Human GLA
B5: 289 (protein)
chain: B1 chain with K96I, F217R, D247N, P337A, D367E, D369T
modifications: Synthetic Polypeptide sequence of Variant No. 289 of mature Human GLA
B6: 291 (protein)
chain: B1 chain with L100F, D247N, K302Q, P337A, G350A, F365L, D367E, D369T
modifications: Synthetic Polypeptide sequence of Variant No. 291 of mature Human GLA
B7: 293 (protein)
chain: B1 chain with L100F, I208V, R221K, M322V, P337A, G350A, F365L, D367E, D369T, I376V
modifications: Synthetic Polypeptide sequence of Variant No. 293 of mature Human GLA
B8: 294 (protein)
chain: B1 chain with L100F, I208V, R221T, K302Q, M322V, P337A, G350A, D367E, D369T, I376V
modifications: Synthetic Polypeptide sequence of Variant No. 294 of mature Human GLA
B9: 288 (protein)
chain: B1 chain with K96I, F217R
modifications: Synthetic Polypeptide sequence of Variant No. 288 of mature Human GLA
B10: 290 (protein)
chain: B1 chain with K96I, K302Q, L316D
modifications: Synthetic Polypeptide sequence of Variant No. 290 of mature Human GLA
B11: 285 (protein)
chain: B1 chain with K96I, D247N, K302Q, P337A, G350A, D367E, D369T
modifications: Synthetic Polypeptide sequence of Variant No. 285 of mature Human GLA
B12: 287 (protein)
chain: B1 chain with F217R, D367E, D369T
modifications: Synthetic Polypeptide sequence of Variant No. 287 of mature Human GLA

The first series can be described thus: HTP-analysis of yeast culture supernatants, no challenge (MUGal hydrolysis). The format is biochemical. The note with it: activity of the variant/activity of Rd2BB (SEQ ID NO: 10), yeast culture supernatant. In a few lines: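 GLA variants were expressed in INVSc1 yeast grown in SD-Ura broth with glucose at 30° C., and culture supernatants were collected after 66-84 h. Supernatant was mixed with McIlvaine buffer pH 4.8 and MUGal (2 mM stock) in 50 mM citrate, 200 mM KCl, pH 4.6, incubated at 37° C. for 30-180 minutes, then quenched with sodium carbonate.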
B1: the “Relative Activity of GLA Variants After No Challenge (NC)” value is listed as “+++ (+++ = >2.5 relative activity over Rd2BB (SEQ ID NO: 10))”.

As for B2, the “Relative Activity of GLA Variants After No Challenge (NC)” value is “+++ (+++ = >2.5 relative activity over Rd2BB (SEQ ID NO: 10))”.

As for B3, the “Relative Activity of GLA Variants After No Challenge (NC)” value is listed as “+ (+ = 0.5 to 1.5 relative activity over Rd2BB (SEQ ID NO: 10))”.

In the case of B4, the “Relative Activity of GLA Variants After No Challenge (NC)” value is listed as “+++ (+++ = >2.5 relative activity over Rd2BB (SEQ ID NO: 10))”.

Consider B5, for which the “Relative Activity of GLA Variants After No Challenge (NC)” value is “+ (+ = 0.5 to 1.5 relative activity over Rd2BB (SEQ ID NO: 10))”.

Take B6: the “Relative Activity of GLA Variants After No Challenge (NC)” value is “+ (+ = 0.5 to 1.5 relative activity over Rd2BB (SEQ ID NO: 10))”.

Consider B7, for which the “Relative Activity of GLA Variants After No Challenge (NC)” value is reported as “++ (++ = 1.5 to 2.5 relative activity over Rd2BB (SEQ ID NO: 10))”.

Turning to B8, the “Relative Activity of GLA Variants After No Challenge (NC)” value is on record as “++ (++ = 1.5 to 2.5 relative activity over Rd2BB (SEQ ID NO: 10))”.

With B9, the “Relative Activity of GLA Variants After No Challenge (NC)” value is reported as “+++ (+++ = >2.5 relative activity over Rd2BB (SEQ ID NO: 10))”.

Turning to B10, the “Relative Activity of GLA Variants After No Challenge (NC)” value is “+++ (+++ = >2.5 relative activity over Rd2BB (SEQ ID NO: 10))”.

For B11, the “Relative Activity of GLA Variants After No Challenge (NC)” value is “+ (+ = 0.5 to 1.5 relative activity over Rd2BB (SEQ ID NO: 10))”.

For the molecule B12, the “Relative Activity of GLA Variants After No Challenge (NC)” value is reported as “+++ (+++ = >2.5 relative activity over Rd2BB (SEQ ID NO: 10))”.

The next series in a line: HTP-analysis of supernatants pretreated with acid (MUGal hydrolysis). The note with it: challenge at pH 4.2; activity of the variant/activity of Rd2BB (SEQ ID NO: 10); yeast culture supernatant. It is filed as biochemical. In a few lines: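 MUGal hydrolysis was tracked by fluorescence (Ex 355 nm, Em 448 nm) after a 30-180 min reaction at 37° C. in pH 4.8 McIlvaine/citrate buffer, stopped with 1 M sodium carbonate. Beforehand, yeast (INVSc1) culture supernatants carrying GLA variants were held 1-3 h at 37° C. in acidic McIlvaine buffer, pH 3.3-4.3.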
As to B1, the “Relative Activity of GLA Variants After Challenge at pH 4.2” value (“Relative Activity … at pH 4.2” below) is “+++ (+++ = >2.5 relative activity over Rd2BB (SEQ ID NO: 10))”.

For B2, the “Relative Activity … at pH 4.2” value is reported as “+++ (+++ = >2.5 relative activity over Rd2BB (SEQ ID NO: 10))”.

On to B3, for which the “Relative Activity … at pH 4.2” value was “+ (+ = 0.5 to 1.5 relative activity over Rd2BB (SEQ ID NO: 10))”.

For the molecule B4, the “Relative Activity … at pH 4.2” value is listed as “++ (++ = 1.5 to 2.5 relative activity over Rd2BB (SEQ ID NO: 10))”.

Turning to B5, the “Relative Activity … at pH 4.2” value was “++ (++ = 1.5 to 2.5 relative activity over Rd2BB (SEQ ID NO: 10))”.

As to B6, the “Relative Activity … at pH 4.2” value is recorded as “+ (+ = 0.5 to 1.5 relative activity over Rd2BB (SEQ ID NO: 10))”.

Turning to B7, the “Relative Activity … at pH 4.2” value is “+ (+ = 0.5 to 1.5 relative activity over Rd2BB (SEQ ID NO: 10))”.

With B8, the “Relative Activity … at pH 4.2” value was “++ (++ = 1.5 to 2.5 relative activity over Rd2BB (SEQ ID NO: 10))”.

With B9, the “Relative Activity … at pH 4.2” value is on record as “+++ (+++ = >2.5 relative activity over Rd2BB (SEQ ID NO: 10))”.

In the case of B10, the “Relative Activity … at pH 4.2” value is “+++ (+++ = >2.5 relative activity over Rd2BB (SEQ ID NO: 10))”.

For the molecule B11, the “Relative Activity … at pH 4.2” value was “+ (+ = 0.5 to 1.5 relative activity over Rd2BB (SEQ ID NO: 10))”.

Regarding B12, the “Relative Activity … at pH 4.2” value is “+++ (+++ = >2.5 relative activity over Rd2BB (SEQ ID NO: 10))”.

Another series can be described thus: HTP-analysis of supernatants pretreated with base (MUGal hydrolysis). It is filed as biochemical. Conditions: challenge at pH 7.6; activity of the variant/activity of Rd2BB (SEQ ID NO: 10); yeast culture supernatant. In a few lines: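 Supernatants from INVSc1 yeast expressing GLA variants (SD-Ura, 66-84 h, 30° C) were mixed with McIlvaine buffer pH 7.0-8.2 or 200 mM sodium bicarbonate pH 9.1-9.7 and held 1-18 h at 37° C. Residual activity was then measured on MUGal at pH 4.8/4.3, 37° C, 30-180 min, by fluorescence (Ex 355/Em 448 nm).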
Consider B1, for which the “Relative Activity of GLA Variants After Challenge at pH 7.6” value (from here on “Relative Activity … at pH 7.6”) is “+++ (+++ = >2.5 relative activity over Rd2BB (SEQ ID NO: 10))”.

With B2, the “Relative Activity … at pH 7.6” value was “+++ (+++ = >2.5 relative activity over Rd2BB (SEQ ID NO: 10))”.

On to B3, for which the “Relative Activity … at pH 7.6” value was “++ (++ = 1.5 to 2.5 relative activity over Rd2BB (SEQ ID NO: 10))”.

On to B4, for which the “Relative Activity … at pH 7.6” value is on record as “+++ (+++ = >2.5 relative activity over Rd2BB (SEQ ID NO: 10))”.

For the molecule B5, the “Relative Activity … at pH 7.6” value is listed as “++ (++ = 1.5 to 2.5 relative activity over Rd2BB (SEQ ID NO: 10))”.

Consider B6, for which the “Relative Activity … at pH 7.6” value was “+ (+ = 0.5 to 1.5 relative activity over Rd2BB (SEQ ID NO: 10))”.

For B7, the “Relative Activity … at pH 7.6” value is reported as “++ (++ = 1.5 to 2.5 relative activity over Rd2BB (SEQ ID NO: 10))”.

On to B8, for which the “Relative Activity … at pH 7.6” value is on record as “+++ (+++ = >2.5 relative activity over Rd2BB (SEQ ID NO: 10))”.

As to B9, the “Relative Activity … at pH 7.6” value is “+++ (+++ = >2.5 relative activity over Rd2BB (SEQ ID NO: 10))”.

Consider B10, for which the “Relative Activity … at pH 7.6” value is “+++ (+++ = >2.5 relative activity over Rd2BB (SEQ ID NO: 10))”.

For the molecule B11, the “Relative Activity … at pH 7.6” value was “++ (++ = 1.5 to 2.5 relative activity over Rd2BB (SEQ ID NO: 10))”.

Turning to B12, the “Relative Activity … at pH 7.6” value is given as “+++ (+++ = >2.5 relative activity over Rd2BB (SEQ ID NO: 10))”.

Another series can be described thus: HTP-analysis of supernatants pretreated with bovine serum (MUGal hydrolysis). The note with it: activity of the variant/activity of Rd2BB (SEQ ID NO: 10), yeast culture supernatant. It is filed as biochemical. In a few lines: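 Yeast INVSc1 culture supernatants containing secreted GLA variants were mixed with bovine serum (20:80) and held 1 h at 37° C. Serum-treated samples then reacted with MUGal (4 mM stock) in citrate/McIlvaine buffer (pH 4.3/4.8) for 180 min at 37° C., were quenched with sodium carbonate, and read by fluorescence (Ex 355, Em 448 nm).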
For the molecule B1, the “Relative Activity of GLA Variants After Challenge with Serum” value (shortened to “Relative Activity … with Serum”) is listed as “+++ (+++ = >2.5 relative activity over Rd2BB (SEQ ID NO: 10))”.

B2: the “Relative Activity … with Serum” value is given as “+++ (+++ = >2.5 relative activity over Rd2BB (SEQ ID NO: 10))”.

Regarding B3, the “Relative Activity … with Serum” value is recorded as “+ (+ = 0.5 to 1.5 relative activity over Rd2BB (SEQ ID NO: 10))”.

As to B4, the “Relative Activity … with Serum” value was “++ (++ = 1.5 to 2.5 relative activity over Rd2BB (SEQ ID NO: 10))”.

Regarding B5, the “Relative Activity … with Serum” value is “++ (++ = 1.5 to 2.5 relative activity over Rd2BB (SEQ ID NO: 10))”.

Take B6: the “Relative Activity … with Serum” value is listed as “+ (+ = 0.5 to 1.5 relative activity over Rd2BB (SEQ ID NO: 10))”.

As to B7, the “Relative Activity … with Serum” value is “+ (+ = 0.5 to 1.5 relative activity over Rd2BB (SEQ ID NO: 10))”.

With B8, the “Relative Activity … with Serum” value is “+ (+ = 0.5 to 1.5 relative activity over Rd2BB (SEQ ID NO: 10))”.

In the case of B9, the “Relative Activity … with Serum” value was “+++ (+++ = >2.5 relative activity over Rd2BB (SEQ ID NO: 10))”.

Take B10: the “Relative Activity … with Serum” value is on record as “+++ (+++ = >2.5 relative activity over Rd2BB (SEQ ID NO: 10))”.

As to B11, the “Relative Activity … with Serum” value is reported as “+ (+ = 0.5 to 1.5 relative activity over Rd2BB (SEQ ID NO: 10))”.

For the molecule B12, the “Relative Activity … with Serum” value was “++ (++ = 1.5 to 2.5 relative activity over Rd2BB (SEQ ID NO: 10))”.
